Data reported in PMC4441819 (Cell, 2015).

Molecular target: T1, HA A/Solomon Islands/03/2006 globular head (Influenza A virus A/Solomon …)
T1 chain: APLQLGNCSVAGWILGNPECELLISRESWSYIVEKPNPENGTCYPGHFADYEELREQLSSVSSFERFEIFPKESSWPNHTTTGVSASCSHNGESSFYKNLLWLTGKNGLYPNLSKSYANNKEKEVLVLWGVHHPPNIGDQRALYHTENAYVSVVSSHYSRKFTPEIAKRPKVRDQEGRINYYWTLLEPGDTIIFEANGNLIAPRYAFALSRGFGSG
Experiment: BLI

B1: CH67 Fab, critical dipeptide VD changed to ID (Fab, V domains shown)
VH: QVQLVQSGAEVRKPGASVKVSCKASGYTFTDNYIHWVRQAPGQGLEWMGWIHPNSGATKYAQKFEGWVTMTRDTSISTVYMELSRSRSDDTAVYYCARAGLEPRSIDYYFYGLDVWGQGTAVTVSS
VL: QSALTQPPSVSVAPGQTATITCGGNNIGRKRVDWFQQKPGQAPVLVVYEDSDRPSGIPERFSDSNSGTTATLTISRVEAGDEADYYCQVWDSDSDHVVFGGGTKLTVL
Kd: 1.79 ± 0.12 µM
kon: 42400 M⁻¹ s⁻¹
